# Test results taken from patent US20200095340A1.
# Biological target: biotinylated human DLL3 protein expressed as a human IgG1 fusion protein (human) (UniProt Q9NYJ7)
# Assay: Octet, biotinylated human DLL3-IgG1 fusion on streptavidin tips, single 50 nM, conditioned medium (relative KD)
# Sequence of biotinylated human DLL3 protein expressed as a human IgG1 fusion protein (human) (Q9NYJ7 27-492): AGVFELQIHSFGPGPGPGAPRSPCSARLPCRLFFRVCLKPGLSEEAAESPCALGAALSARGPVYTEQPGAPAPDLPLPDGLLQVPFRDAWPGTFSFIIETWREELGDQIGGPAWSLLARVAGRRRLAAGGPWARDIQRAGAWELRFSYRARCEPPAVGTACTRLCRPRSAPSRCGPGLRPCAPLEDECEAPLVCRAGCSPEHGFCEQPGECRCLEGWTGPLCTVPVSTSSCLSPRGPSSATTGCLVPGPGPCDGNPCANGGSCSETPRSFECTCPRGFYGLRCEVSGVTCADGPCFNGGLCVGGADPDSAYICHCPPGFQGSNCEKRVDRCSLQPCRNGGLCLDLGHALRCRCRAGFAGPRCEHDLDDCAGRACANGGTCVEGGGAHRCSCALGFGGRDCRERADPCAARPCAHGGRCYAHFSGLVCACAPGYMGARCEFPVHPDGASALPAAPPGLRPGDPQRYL
row,Binder,Kd
1,"anti-DLL3 trispecific protein, DLL3 binder 1H02 (protein, part only; not given: anti-CD3 fragment and anti-albumin domain, part only) chain, part: EVQLVESGGGLVQPGGSLTLSCVASGSKSSINAMGWYRRAPGKQRELAAGISSDGSKVYAQSVKGRFTISRDNAKNSVYLQMNSLRAEDTAVYYCYYFRTSSGSSMRYWGQGTLVTVSSGGGGSGGGSGGGGSGGGSHHHHHH",0.01 µM
2,"anti-DLL3 trispecific protein, DLL3 binder 1F04 (protein, part only; not given: anti-CD3 and anti-albumin domains, part only) chain, part: EVQLVESGGGLVQPGGSLTLSCVASGGTSSINAMGWYRRAPGKQRELVAGISSDGSKVYSDSVKGRFTISRDNAKNSVYLQMNSLRAEDTAVYYCYYFRTVSGSSARYWGQGTLVTVSSGGGGSGGGSGGGGSGGGSHHHHHH",0.01 µM
3,"anti-DLL3 trispecific protein, DLL3 binder 1G04 (protein, part only; not given: anti-CD3 fragment and anti-albumin sdAb, part only) chain, part: EVQLVESGGGLVQPGGSLTLSCVASGSTSSTNAMGWYRRAPGKQRELVAGISSDGSKVLADSVKGRFTISRDNAKNSVYLQMNSLRAEDTAVYYCYYFRTVNLSSMRYWGQGTLVTVSSGGGGSGGGSGGGGSGGGSHHHHHH",0.011 µM
4,"anti-DLL3 trispecific protein, DLL3 binder 2C01 (protein, part only; not given: anti-CD3 fragment and anti-albumin sdAb, part only) chain, part: EVQLVESGGGLVQPGGSLTLSCVASGSTASINAMGWYRRAPGKQRELVAGISSDGSKVYADSVKGRFTISRDNAKNSVYLQMNSLRAEDTAVYYCYYFRYVSGSSMRYWGQGTLVTVSSGGGGSGGGSGGGGSGGGSHHHHHH",0.012 µM
5,"anti-DLL3 trispecific protein, DLL3 binder 1B02 (protein, part only; not given: anti-CD3 fragment and anti-albumin sdAb, part only) chain, part: EVQLVESGGGLVQPGGSLTLSCVASGSTSSINAMGWYRRAPGKQRELVAGISSDGSKIYADSVKGRFTISRDNAKNSVYLQMNSLRAEDTAVYYCYYFRTVSGSSMRYWGQGTLVTVSSGGGGSGGGSGGGGSGGGSHHHHHH",0.011 µM
6,"anti-DLL3 trispecific protein, DLL3 binder 2F06 (protein, part only; not given: CD3 fragment and albumin sdAb, part only) chain, part: EVQLVESGGGLVQPGGSLTLSCVASGSTSSINAYGWYRRAPGKQRELVAGISSDGSAVYADSVKGRFTISRDNAKNSVYLQMNSLRAEDTAVYYCYYFRTHSGSSMRYWGQGTLVTVSSGGGGSGGGSGGGGSGGGSHHHHHH",0.01 µM
7,"anti-DLL3 trispecific protein, DLL3 binder 3C06 (protein, part only; not given: CD3 binder and albumin binder, part only) chain, part: EVQLVESGGGLVQPGGSLTLSCAASGTSVSFLSIAWYRQAPGKKRELVAGISADGSTDYIASVKGRFTISRDNAKNSVYLQMNSLRAEDTAVYYCYAYRWRTRYTYWGQGTLVTVSSGGGGSGGGSGGGGSGGGSHHHHHH",0.01 µM
8,"anti-DLL3 trispecific protein, DLL3 binder 4E06 (protein, part only; not given: anti-CD3 fragment and anti-albumin domain, part only) chain, part: EVQLVESGGGLVQPGGSLTLSCAASGTSVSFLSMAWYRQAPGKKRELVAGISADGSTDYIRSVKGRFTISRDNAKNSVYLQMNSLRAEDTAVYYCYAYRWTTRLTYWGQGTLVTVSSGGGGSGGGSGGGGSGGGSHHHHHH",0.01 µM
9,"anti-DLL3 trispecific protein, DLL3 binder 3E011 (protein, part only; not given: CD3 binder and albumin binder, part only) chain, part: EVQLVESGGGLVQPGGSLTLSCAASGSKVSFLSMAWYRQAPGKKRELVAGISRDGSTDYIDSVKGRFTISRDNAKNSVYLQMNSLRAEDTAVYYCYAYRWTTRYTFWGQGTLVTVSSGGGGSGGGSGGGGSGGGSHHHHHH",0.011 µM
10,"anti-DLL3 trispecific protein, DLL3 binder 3B010 (protein, part only; not given: anti-CD3 and anti-albumin domains, part only) chain, part: EVQLVESGGGLVQPGGSLTLSCAASGSSVSFLSMAWYRQAPGKKRELVAGISRDGSTDYIDSVKGRFTISRDNAKNSVYLQMNSLRAEDTAVYYCYAYRWVTRYTYWGQGTLVTVSSGGGGSGGGSGGGGSGGGSHHHHHH",0.012 µM
11,"anti-DLL3 trispecific protein, DLL3 binder 3A03 (protein, part only; not given: CD3 fragment and albumin sdAb, part only) chain, part: EVQLVESGGGLVQPGGSLTLSCAASGSRVSFLSMAWYRQAPGKKRELVAGISRDGSTDYIDSVKGRFTISRDNAKNSVYLQMNSLRAEDTAVYYCYAYRWTTRRTYWGQGTLVTVSSGGGGSGGGSGGGGSGGGSHHHHHH",0.012 µM
12,"anti-DLL3 trispecific protein, DLL3 binder 3G06 (protein, part only; not given: CD3 binder and albumin binder, part only) chain, part: EVQLVESGGGLVQPGGSLTLSCAASGSSVKFLSMAWYRQAPGKKRELVAGISADGSTLYIDSVKGRFTISRDNAKNSVYLQMNSLRAEDTAVYYCYAYRWTTRRTYWGQGTLVTVSSGGGGSGGGSGGGGSGGGSHHHHHH",0.012 µM
13,"anti-DLL3 trispecific protein, DLL3 binder 3G08 (protein, part only; not given: anti-CD3 fragment and anti-albumin sdAb, part only) chain, part: EVQLVESGGGLVQPGGSLTLSCAASGSRVSFLSMAWYRQAPGKKRELVAGISKDGSTDYIDSVKGRFTISRDNAKNSVYLQMNSLRAEDTAVYYCYAYRWTTRVTYWGQGTLVTVSSGGGGSGGGSGGGGSGGGSHHHHHH",0.012 µM
14,"anti-DLL3 trispecific protein, DLL3 binder 3E09 (protein, part only; not given: CD3 binder and albumin binder, part only) chain, part: EVQLVESGGGLVQPGGSLTLSCAASGSSVRFLSMAWYRQAPGKKRELVAGISRDGSTDYIDSVKGRFTISRDNAKNSVYLQMNSLRAEDTAVYYCYAYRWSTRYTYWGQGTLVTVSSGGGGSGGGSGGGGSGGGSHHHHHH",0.01 µM
15,"anti-DLL3 trispecific protein, DLL3 binder 3E02 (protein, part only; not given: anti-CD3 fragment and anti-albumin domain, part only) chain, part: EVQLVESGGGLVQPGGSLTLSCAASGSGVRFLSMAWYRQAPGKKRELVAGISPDGSTDYIDSVKGRFTISRDNAKNSVYLQMNSLRAEDTAVYYCYAYRWTRRYTYWGQGTLVTVSSGGGGSGGGSGGGGSGGGSHHHHHH",0.012 µM

# Now from value to binder:
row,Kd,Binder
1,0.01 µM,"anti-DLL3 trispecific protein, DLL3 binder 2A09 (protein, part only; not given: anti-CD3 and anti-albumin domains, part only) chain, part: EVQLVESGGGLVQPGGSLTLSCVASGSTSSRNAMGWYRRAPGKQRELVAGISSNGSKVYSDSVKGRFTISRDNAKNSVYLQMNSLRAEDTAVYYCYYFRTVSGSSMSYWGQGTLVTVSSGGGGSGGGSGGGGSGGGSHHHHHH"
2,0.011 µM,"anti-DLL3 trispecific protein, DLL3 binder 2E06 (protein, part only; not given: CD3 binder and albumin binder, part only) chain, part: EVQLVESGGGLVQPGGSLTLSCVASGSTSSINAMGWYRRAPGKQRELVAGISSDGSKVYASSVKGRFTISRDNAKNSVYLQMNSLRAEDTAVYYCYYFRTVRGSSMRYWGQGTLVTVSSGGGGSGGGSGGGGSGGGSHHHHHH"
3,0.011 µM,"anti-DLL3 trispecific protein, DLL3 binder 2G04 (protein, part only; not given: anti-CD3 fragment and anti-albumin sdAb, part only) chain, part: EVQLVESGGGLVQPGGSLTLSCVASGSTSSINAMGWYRRAPGKQRELVAGISSDGSLVYADSVKGRFTISRDNAKNSVYLQMNSLRAEDTAVYYCYYFRILSGSSMRYWGQGTLVTVSSGGGGSGGGSGGGGSGGGSHHHHHH"
4,0.01 µM,"anti-DLL3 trispecific protein, DLL3 binder 1G09 (protein, part only; not given: anti-CD3 fragment and anti-albumin domain, part only) chain, part: EVQLVESGGGLVQPGGSLTLSCVASGSTSSINAMGWYRRAPGKQRELVAGISSDGSKVYADSVKGRFTISRDNAKNSVYLQMNSLRAEDTAVYYCYYFRTVSKSSMRYWGQGTLVTVSSGGGGSGGGSGGGGSGGGSHHHHHH"
5,0.011 µM,"anti-DLL3 trispecific protein, DLL3 binder 1B04 (protein, part only; not given: CD3 fragment and albumin sdAb, part only) chain, part: EVQLVESGGGLVQPGGSLTLSCVASGTTSSINAMGWYRRAPGKQRELVAGISSDGSLVYADSVKGRFTISRDNAKNSVYLQMNSLRAEDTAVYYCYYFRIVRGSSMRYWGQGTLVTVSSGGGGSGGGSGGGGSGGGSHHHHHH"
6,0.011 µM,"anti-DLL3 trispecific protein, DLL3 binder 2B011 (protein, part only; not given: CD3 binder and albumin binder, part only) chain, part: EVQLVESGGGLVQPGGSLTLSCVASGNTSSINAMGWYRRAPGKQRELVAGISSDGSRVYADSVKGRFTISRDNAKNSVYLQMNSLRAEDTAVYYCYYFRTVSGSSMRSWGQGTLVTVSSGGGGSGGGSGGGGSGGGSHHHHHH"
7,0.012 µM,"anti-DLL3 trispecific protein, DLL3 binder 3F09 (protein, part only; not given: anti-CD3 fragment and anti-albumin sdAb, part only) chain, part: EVQLVESGGGLVQPGGSLTLSCAASGSSVRFLSMAWYRQAPGKKRELVAGISRDGSTDYIDSVKGRFTISRDNAKNSVYLQMNSLRAEDTAVYYCYAYRWGTRYTYWGQGTLVTVSSGGGGSGGGSGGGGSGGGSHHHHHH"
8,0.011 µM,"anti-DLL3 trispecific protein, DLL3 binder 4B01 (protein, part only; not given: anti-CD3 and anti-albumin domains, part only) chain, part: EVQLVESGGGLVQPGGSLTLSCAASGSSVKFLSMAWYRQAPGKKRELVAGISRDGSTDYIDSVKGRFTISRDNAKNSVYLQMNSLRAEDTAVYYCYAYRWTTRFTYWGQGTLVTVSSGGGGSGGGSGGGGSGGGSHHHHHH"
9,0.011 µM,"anti-DLL3 trispecific protein, DLL3 binder 4E01 (protein, part only; not given: anti-CD3 fragment and anti-albumin sdAb, part only) chain, part: EVQLVESGGGLVQPGGSLTLSCAASGSSVSFLSVAWYRQAPGKKRELVAGISRDGSTDYIDSVKGRFTISRDNAKNSVYLQMNSLRAEDTAVYYCYAYRWRTRYTYWGQGTLVTVSSGGGGSGGGSGGGGSGGGSHHHHHH"
10,0.012 µM,"anti-DLL3 trispecific protein, DLL3 binder 3D02 (protein, part only; not given: anti-CD3 fragment and anti-albumin sdAb, part only) chain, part: EVQLVESGGGLVQPGGSLTLSCAASGSSVRFLSMAWYRQAPGKKRELVAGISRDGSTDYIDSVKGRFTISRDNAKNSVYLQMNSLRAEDTAVYYCYAYRWITRYTYWGQGTLVTVSSGGGGSGGGSGGGGSGGGSHHHHHH"
11,0.01 µM,"anti-DLL3 trispecific protein, DLL3 binder 4B08 (protein, part only; not given: CD3 fragment and albumin sdAb, part only) chain, part: EVQLVESGGGLVQPGGSLTLSCAASGSSVSFMSMAWYRQAPGKKRELVAGISADGSTDYIASVKGRFTISRDNAKNSVYLQMNSLRAEDTAVYYCYAYRWTTRSTYWGQGTLVTVSSGGGGSGGGSGGGGSGGGSHHHHHH"
12,0.011 µM,"anti-DLL3 trispecific protein, DLL3 binder 3E04 (protein, part only; not given: CD3 fragment and albumin sdAb, part only) chain, part: EVQLVESGGGLVQPGGSLTLSCAASGSSVHFLSMAWYRQAPGKKRELVAGISRDGSTDYIDSVKGRFTISRDNAKNSVYLQMNSLRAEDTAVYYCYAYRWTTRYRYWGQGTLVTVSSGGGGSGGGSGGGGSGGGSHHHHHH"
13,0.012 µM,"anti-DLL3 trispecific protein, DLL3 binder 4B04 (protein, part only; not given: anti-CD3 fragment and anti-albumin sdAb, part only) chain, part: EVQLVESGGGLVQPGGSLTLSCAASGSSVLFLSMAWYRQAPGKKRELVAGVSSDGSTDYIDSVKGRFTISRDNAKNSVYLQMNSLRAEDTAVYYCYAYRWRTRYTYWGQGTLVTVSSGGGGSGGGSGGGGSGGGSHHHHHH"
14,0.011 µM,"anti-DLL3 trispecific protein, DLL3 binder 3D03 (protein, part only; not given: anti-CD3 fragment and anti-albumin sdAb, part only) chain, part: EVQLVESGGGLVQPGGSLTLSCAASGSSVVFLSMAWYRQAPGKKRELVAGISADGSMDYIDSVKGRFTISRDNAKNSVYLQMNSLRAEDTAVYYCYAYRWRTRYTYWGQGTLVTVSSGGGGSGGGSGGGGSGGGSHHHHHH"
15,0.012 µM,"anti-DLL3 trispecific protein, DLL3 binder 3A010 (protein, part only; not given: anti-CD3 fragment and anti-albumin sdAb, part only) chain, part: EVQLVESGGGLVQPGGSLTLSCAASGSRVSFLSMAWYRQAPGKKRELVAGISADGSTLYIDSVKGRFTISRDNAKNSVYLQMNSLRAEDTAVYYCYAYRWTTRRTYWGQGTLVTVSSGGGGSGGGSGGGGSGGGSHHHHHH"
16,0.011 µM,"anti-DLL3 trispecific protein, DLL3 binder 4E07 (protein, part only; not given: CD3 binder and albumin binder, part only) chain, part: EVQLVESGGGLVQPGGSLTLSCAASGSRVSFLSMAWYRQAPGKKRELVAGISADGSTMYIDSVKGRFTISRDNAKNSVYLQMNSLRAEDTAVYYCYAYRWTTRLTYWGQGTLVTVSSGGGGSGGGSGGGGSGGGSHHHHHH"
